Test [1] addresses T1, commercial CD3ε (Creative Biomart, Catalog Number CD3E-2194H) (human, UniProt P07766).
T1 construct: commercial recombinant protein; also called commercial CD3E
As to the kind of experiment: binding affinity on commercial CD3ε (Creative Biomart CD3E-2194H); method not stated in the legend.

Test [2] has as its target T2, single chain human CD3ε-26mer-CD3γ (CD3εγ) (human).
T2 construct: also called human CD3εγ
T2 chain: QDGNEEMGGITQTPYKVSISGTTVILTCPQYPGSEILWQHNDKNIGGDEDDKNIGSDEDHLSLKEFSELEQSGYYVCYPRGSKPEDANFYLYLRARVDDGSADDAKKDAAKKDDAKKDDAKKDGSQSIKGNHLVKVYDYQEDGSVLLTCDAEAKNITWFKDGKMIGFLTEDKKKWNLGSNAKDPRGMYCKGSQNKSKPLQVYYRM
Nature of the test: Biacore single cycle kinetics: Fab captured by anti-human Fab, human CD3εγ injected (3-250 nM). The source says: (§1) In addition, position 95 in HVR-H3 was also mutated to serine, threonine, or glutamate. Variants with these single point mutations were expressed as Fabs in HEK293 cells and initially screened with a single cycle kinetics method on a Biacore T100. Selected variants were also scaled up and purified for a conventional multi-cycle kinetics method. For single cycle kinetics, Biacore Series S CM5 sensor chips were immobilized with anti-human Fab antibodies (Human Fab capture kit, GE Healthcare). […] For conventional multi-cycle kinetics, human CD3εγ, cyno CD3εγ, or a 27-mer peptide were immobilized on Biacore Series S CM5 sensor chip using the amine coupling kit from Biacore. Serial 3-fold dilutions of each Fab variant were injected at a flow rate of 30 μl/min. Each sample was analyzed with a protocol of 3-minute association and 3-minute dissociation. In both methods, the Biacore chips were regenerated using 10 mM Glycine (pH 1.7). Binding response was corrected by blank subtraction and a 1:1Languir model of simultaneous fitting of kₒₙ and koff was used for kinetics analysis.

Test [3] addresses T2, single chain human CD3ε-26mer-CD3γ …. As to the kind of experiment: Biacore single cycle kinetics; KD relative to hu38E4.v1.
Text: as §1

Test [4] has the same target. Nature of the test: Biacore full (multi-) cycle kinetics: antigen on chip, Fab injected; antigen not named on the sheet, taken as human CD3εγ.
Text: as §1

The target is the same in test [5]. As to the kind of experiment: Biacore full (multi-) cycle kinetics; KD relative to hu38E4.v1.
Text: as §1

The target of another test is T3, Commercial hCD3eg.
T3 chain 1: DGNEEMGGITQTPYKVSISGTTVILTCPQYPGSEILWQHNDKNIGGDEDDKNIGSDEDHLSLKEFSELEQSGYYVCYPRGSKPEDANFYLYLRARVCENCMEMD
T3 chain 2: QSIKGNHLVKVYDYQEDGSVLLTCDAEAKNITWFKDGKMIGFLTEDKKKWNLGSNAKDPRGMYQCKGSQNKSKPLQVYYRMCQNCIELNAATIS
As to the kind of experiment: mu IgG against commercial hCD3eg; method not stated on the sheet.

This is an account of results in patent US20200299408A1 (Genentech, published 2020).

B1: murine SP34 (antibody, V domains shown)
VH: EVQLVESGGGLVQPKGSLKLSCAASGFTFNTYAMNWVRQAPGKGLEWVARIRSKYNNYATYYADSVKDRFTISRDDSQSILYLQMNNLKTEDTAMYYCVRHGNFGNSYVSWFAYWGQGTLVTVSS
VL: QAVVTQESALTTSPGETVTLTCRSSTGAVTTSNYANWVQEKPDHLFTGLIGGTNKRAPGVPARFSGSLIGDKAALTITGAQTEDEAIYFCALWYSNLWVFGGGTKLTVL
Regarding B1, the equilibrium dissociation constant (Kd) in test [1] stood at 7 nM.

B2: humanized SP34 variant: λ7 graft + F36V + T46G + Y49G / VH3 graft + N73D + T93V (antibody, V domains shown)
VH: EVQLVESGGGLVQPGGSLRLSCAASGFTFNTYAMNWVRQAPGKGLEWVGRIRSKYNNYATYYADSVKDRFTISRDDSKNTLYLQMNSLRAEDTAVYYCVRHGNFGNSYVSWFAYWGQGTLVTVSS
VL: EAVVTQEPSLTVSPGGTVTLTCRSSTGAVTTSNYANWVQQKPGQAPRGLIGGTNKRAPWTPARFSGSLLGGKAALTLSGAQPEDEAEYYCALWYSNLWVFGGGTKLTVL
B2 registered a dissociation constant Kd in test [1] of 3.5 nM.

B3: humanized SP34 variant: λ7 graft + F36V + Q38E + A43L + P44F + T46G + Y49G + T58V + Y87F / VH3 graft + G49A + T93V (antibody, V domains shown)
VH: EVQLVESGGGLVQPGGSLRLSCAASGFTFNTYAMNWVRQAPGKGLEWVARIRSKYNNYATYYADSVKDRFTISRDNSKNTLYLQMNSLRAEDTAVYYCVRHGNFGNSYVSWFAYWGQGTLVTVSS
VL: EAVVTQEPSLTVSPGGTVTLTCRSSTGAVTTSNYANWVQEKPGQLFRGLIGGTNKRAPWVPARFSGSLLGGKAALTLSGAQPEDEAEYFCALWYSNLWVFGGGTKLTVL
B3 yielded a Kd in test [1] of 21 nM.

B4: humanized SP34 variant: λ7 graft + F36V + Q38E + A43L + P44F + T46G + Y49G + T58V + Y87F / VH3 graft + N73D + T93V (antibody, V domains shown)
VH: EVQLVESGGGLVQPGGSLRLSCAASGFTFNTYAMNWVRQAPGKGLEWVGRIRSKYNNYATYYADSVKDRFTISRDDSKNTLYLQMNSLRAEDTAVYYCVRHGNFGNSYVSWFAYWGQGTLVTVSS
VL: EAVVTQEPSLTVSPGGTVTLTCRSSTGAVTTSNYANWVQEKPGQLFRGLIGGTNKRAPWVPARFSGSLLGGKAALTLSGAQPEDEAEYFCALWYSNLWVFGGGTKLTVL
Take B4: in test [1], the affinity, expressed as Kd, was 3.1 nM.

B5: humanized SP34 variant: λ7 graft + F36V + T46G + Y49G / VH3 graft G49A + N73D + T93V (antibody, V domains shown)
VH: EVQLVESGGGLVQPGGSLRLSCAASGFTFNTYAMNWVRQAPGKGLEWVARIRSKYNNYATYYADSVKDRFTISRDDSKNTLYLQMNSLRAEDTAVYYCVRHGNFGNSYVSWFAYWGQGTLVTVSS
VL: EAVVTQEPSLTVSPGGTVTLTCRSSTGAVTTSNYANWVQQKPGQAPRGLIGGTNKRAPWTPARFSGSLLGGKAALTLSGAQPEDEAEYYCALWYSNLWVFGGGTKLTVL
On to B5, for which the Kd in test [1] is 14.5 nM.

B6: humanized SP34 variant: λ7 graft + F36V + Q38E + A43L + P44F + T46G + Y49G + T58V + Y87F / VH3 graft G49A + N73D + T93V (antibody, V domains shown)
VH: EVQLVESGGGLVQPGGSLRLSCAASGFTFNTYAMNWVRQAPGKGLEWVARIRSKYNNYATYYADSVKDRFTISRDDSKNTLYLQMNSLRAEDTAVYYCVRHGNFGNSYVSWFAYWGQGTLVTVSS
VL: EAVVTQEPSLTVSPGGTVTLTCRSSTGAVTTSNYANWVQEKPGQLFRGLIGGTNKRAPWVPARFSGSLLGGKAALTLSGAQPEDEAEYFCALWYSNLWVFGGGTKLTVL
Consider B6, for which the Kd in test [1] came out at 8 nM.

B7: humanized SP34 variant: λ7 graft + F36V + T46G + Y49G / VH3 graft + T93V (antibody, V domains shown)
VH: EVQLVESGGGLVQPGGSLRLSCAASGFTFNTYAMNWVRQAPGKGLEWVGRIRSKYNNYATYYADSVKDRFTISRDNSKNTLYLQMNSLRAEDTAVYYCVRHGNFGNSYVSWFAYWGQGTLVTVSS
VL: EAVVTQEPSLTVSPGGTVTLTCRSSTGAVTTSNYANWVQQKPGQAPRGLIGGTNKRAPWTPARFSGSLLGGKAALTLSGAQPEDEAEYYCALWYSNLWVFGGGTKLTVL
In turn, B7 gave a Kd in test [1] of 15.9 nM.

B8: hu38E4.v1 H3 mutant D101A (Fab, V domains shown)
VH: EVQLVQSGAEVKKPGASVKVSCKASGFTFTSYYIHWVRQAPGQGLEWIGWIYPENDNTKYNEKFKDRVTITADTSTSTAYLELSSLRSEDTAVYYCARDGYSRYYFAYWGQGTLVTVSS
VL: DIVMTQSPDSLAVSLGERATINCKSSQSLLNSRTRKNYLAWYQQKPGQSPKLLIYWTSTRKSGVPDRFSGSGSGTDFTLTISSLQAEDVAVYYCKQSFILRTFGQGTKVEIK
notes: copies: 1 + 1
As for B8, in test [2], binding was characterised by a dissociation constant (Kd) of 24.1 nM, the koff was 0.00342 s⁻¹ and the kon is 142000 M⁻¹ s⁻¹. Further, the “ratio (fold)” value in test [3] is 7.2 fold.

B9: hu38E4.v1 H3 mutant S98A (Fab, V domains shown)
VH: EVQLVQSGAEVKKPGASVKVSCKASGFTFTSYYIHWVRQAPGQGLEWIGWIYPENDNTKYNEKFKDRVTITADTSTSTAYLELSSLRSEDTAVYYCARDGYARYYFDYWGQGTLVTVSS
VL: DIVMTQSPDSLAVSLGERATINCKSSQSLLNSRTRKNYLAWYQQKPGQSPKLLIYWTSTRKSGVPDRFSGSGSGTDFTLTISSLQAEDVAVYYCKQSFILRTFGQGTKVEIK
notes: copies: 1 + 1
As for B9, in test [2], the Kd worked out at 3.8 nM, the koff amounted to 0.00147 s⁻¹ and the kon is 385000 M⁻¹ s⁻¹. Moreover, the “ratio (fold)” value in test [3] is 1.1 fold.

B10: hu38E4.v1 L3 mutant Q90A (Fab, V domains shown)
VH: EVQLVQSGAEVKKPGASVKVSCKASGFTFTSYYIHWVRQAPGQGLEWIGWIYPENDNTKYNEKFKDRVTITADTSTSTAYLELSSLRSEDTAVYYCARDGYSRYYFDYWGQGTLVTVSS
VL: DIVMTQSPDSLAVSLGERATINCKSSQSLLNSRTRKNYLAWYQQKPGQSPKLLIYWTSTRKSGVPDRFSGSGSGTDFTLTISSLQAEDVAVYYCKASFILRTFGQGTKVEIK
notes: copies: 1 + 1
Consider B10, for which, in test [4], the Kd amounted to 23.8 nM, the koff came out at 0.00422 s⁻¹ and the kon was found to be 178000 M⁻¹ s⁻¹. For the same molecule, in test [5], the “ratio (fold)” value was 29.9 fold.

B11: hu38E4.v1 L3 mutant K89A (Fab, V domains shown)
VH: EVQLVQSGAEVKKPGASVKVSCKASGFTFTSYYIHWVRQAPGQGLEWIGWIYPENDNTKYNEKFKDRVTITADTSTSTAYLELSSLRSEDTAVYYCARDGYSRYYFDYWGQGTLVTVSS
VL: DIVMTQSPDSLAVSLGERATINCKSSQSLLNSRTRKNYLAWYQQKPGQSPKLLIYWTSTRKSGVPDRFSGSGSGTDFTLTISSLQAEDVAVYYCAQSFILRTFGQGTKVEIK
notes: copies: 1 + 1
In test [2], B11 returned a Kd of 2.4 nM, an off-rate constant (koff) of 0.00102 s⁻¹ and an on-rate (kon) of 428000 M⁻¹ s⁻¹. In addition, the “ratio (fold)” value in test [3] is 0.7 fold.

B12: hu38E4.v1 H3 mutant Y102A (Fab, V domains shown)
VH: EVQLVQSGAEVKKPGASVKVSCKASGFTFTSYYIHWVRQAPGQGLEWIGWIYPENDNTKYNEKFKDRVTITADTSTSTAYLELSSLRSEDTAVYYCARDGYSRYYFDAWGQGTLVTVSS
VL: DIVMTQSPDSLAVSLGERATINCKSSQSLLNSRTRKNYLAWYQQKPGQSPKLLIYWTSTRKSGVPDRFSGSGSGTDFTLTISSLQAEDVAVYYCKQSFILRTFGQGTKVEIK
notes: copies: 1 + 1
As for B12, in test [2], the Kd worked out at 4.1 nM, the koff is 0.00132 s⁻¹ and the association rate constant (kon) was 322000 M⁻¹ s⁻¹. In addition, the “ratio (fold)” value in test [3] stood at 1.2 fold.

B13: 30A1 (antibody, IgG1, V domains shown)
VH: QVQLKESGPGLVAPSQSLSITCTVSGFSLTNYAIHWVRQPPGKGLDWLGVIWAGGNTKYNSALMSRLSFSKDNSKSQVFLEINSLQTDDTAMYYCAREDSSGYVALDYWGQGTSVTVSS
VL: NIVMTQSPSSLAVSAGEKVTMSCKSSQSLLSGRTRKNYLAWYQQKPGQSPKLLIYWASTRESGVPDRFTGSGSGTDFTLTISSVQAEDLAVYYCKQSYYLLTFGAGTKLELK
notes: mouse hybridoma clone
For the molecule B13, the Kd with Commercial hCD3eg was 0.4 nM.

B14: 13A3 (antibody, IgG2b, V domains shown)
VH: EVQLQQSGPELVKPGASVRISCKASGYTFTSYYIHWMKQRPGQGLEWIGWIYPGNVNTKYNEKFKGKATLTADNSSSTANMQLSSLTSEDSAVYFCARNHDYYFDYWGQGTTLTVSS
VL: DIVLTQSPSSLAVSAGEKVTMSCKSSQSLLNSRTRKNYLAWYQQKPGQSPKLLIYWASTRESGVPDRFTGSGSGTDFTLTISSVQAEDLAVYYCKQSYILRTFGGGTKLEIK
notes: mouse hybridoma clone; also called 13A3 (xCD3)
B14 registered a Kd in the test with Commercial hCD3eg of 0.6 nM.

In general, Kd refers to the constant that tells how readily two partners part at equilibrium. The term koff denotes a measure of how fast the partners let go of each other. The term kon denotes the second-order rate constant of association.
